Measurements from patent US20250114463A1, “LIVER-TARGETED DRUG AND USE THEREOF” (HANMI PHARM. CO., LTD., priority 2021, published 2025).
Bridges are numbered along the chain shown (N, C = ends). Where no end group is shown, it is not given here. [ ]: non-standard residue; d: D form. Aib = CC(C)(N)C(=O)O

Experiments:
Assay in all cases: cell-based or functional assay
human GLP-1 receptor = human GLP-1 receptor (human, UniProt P43220 24-463)
human GCG receptor = human GCG receptor (human, UniProt P47871 26-477)
human GIP receptor = target: T1, human GIP receptor (human, UniProt P48546 22-466)
T1 sequence (looked up): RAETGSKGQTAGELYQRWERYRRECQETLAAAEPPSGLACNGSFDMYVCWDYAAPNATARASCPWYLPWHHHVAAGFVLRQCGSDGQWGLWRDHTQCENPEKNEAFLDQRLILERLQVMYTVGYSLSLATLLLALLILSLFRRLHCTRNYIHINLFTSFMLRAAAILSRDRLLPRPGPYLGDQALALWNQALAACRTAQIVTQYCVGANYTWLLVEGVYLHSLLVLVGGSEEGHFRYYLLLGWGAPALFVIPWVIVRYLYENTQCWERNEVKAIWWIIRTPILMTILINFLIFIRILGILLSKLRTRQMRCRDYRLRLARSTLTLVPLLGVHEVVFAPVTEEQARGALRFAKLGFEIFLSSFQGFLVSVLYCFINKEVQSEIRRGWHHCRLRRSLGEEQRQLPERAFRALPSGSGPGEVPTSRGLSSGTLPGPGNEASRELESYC

Chain of human GCG receptor (P47871 26-477): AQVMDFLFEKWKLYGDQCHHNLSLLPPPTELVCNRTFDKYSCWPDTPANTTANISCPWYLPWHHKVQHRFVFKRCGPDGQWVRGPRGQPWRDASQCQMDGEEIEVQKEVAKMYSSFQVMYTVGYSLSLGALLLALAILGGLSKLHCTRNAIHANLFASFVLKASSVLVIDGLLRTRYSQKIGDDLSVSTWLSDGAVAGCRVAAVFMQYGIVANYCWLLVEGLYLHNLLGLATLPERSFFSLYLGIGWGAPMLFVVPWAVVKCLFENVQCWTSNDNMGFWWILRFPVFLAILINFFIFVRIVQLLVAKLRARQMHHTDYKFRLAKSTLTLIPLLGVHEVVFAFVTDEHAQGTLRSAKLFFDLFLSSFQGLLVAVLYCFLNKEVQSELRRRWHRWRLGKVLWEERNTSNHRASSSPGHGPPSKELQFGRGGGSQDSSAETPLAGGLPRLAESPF

H[Aib]QGTFTSDYSKYLDEKACKEFVQWLLAQ (bridge 16-20; not fully specified (C-terminus)) [triple agonist of SEQ ID NO: 31]
in vitro Activity Compared to Native Peptide (%), vs GLP-1 (human GLP-1 receptor): 135% | in vitro Activity Compared to Native Peptide (%), vs Glucagon (human GCG receptor): 2.2% | in vitro Activity Compared to Native Peptide (%), vs GIP (human GIP receptor): 2.4%

H[Aib]QGTFTSDYSKYLDEKRAQEFVCWLLAQKGKKNDWKHNIT-NH2 [triple agonist of SEQ ID NO: 28]
in vitro Activity Compared to Native Peptide (%), vs GLP-1 (human GLP-1 receptor): 17.2% | in vitro Activity Compared to Native Peptide (%), vs Glucagon (human GCG receptor): 1.6% | in vitro Activity Compared to Native Peptide (%), vs GIP (human GIP receptor): < 0.1%

H[Aib]QGTFTSDYSKYLDEKAQKEFVQWLLDTC (bridge 16-20; not fully specified (C-terminus)) [triple agonist of SEQ ID NO: 30]
in vitro Activity Compared to Native Peptide (%), vs GLP-1 (human GLP-1 receptor): 142% | in vitro Activity Compared to Native Peptide (%), vs Glucagon (human GCG receptor): 0.7% | in vitro Activity Compared to Native Peptide (%), vs GIP (human GIP receptor): 0.8%

H[Aib]QGTFTSDYSKYLDEKAAKEFVQWLLNTC (bridge 16-20; not fully specified (C-terminus)) [triple agonist of SEQ ID NO: 29]
in vitro Activity Compared to Native Peptide (%), vs GLP-1 (human GLP-1 receptor): 38.5% | in vitro Activity Compared to Native Peptide (%), vs Glucagon (human GCG receptor): 6% | in vitro Activity Compared to Native Peptide (%), vs GIP (human GIP receptor): < 0.1%

B1: triple agonist of SEQ ID NO: 27 (peptide)
peptide: HXQGTFTSDYSKYLDERACQDFVQWLLDQGGPSSGAPPPS
HELM: PEPTIDE1{H.[Aib].Q.G.T.F.T.S.D.Y.S.K.Y.L.D.E.R.A.C.Q.D.F.V.Q.W.L.L.D.Q.G.G.P.S.S.G.A.P.P.P.S.[am]}$$$$V2.0; N-terminus assumed
SMILES: CC(C)C[C@H](NC(=O)[C@H](CC(C)C)NC(=O)[C@H](Cc1c[nH]c2ccccc12)NC(=O)[C@H](CCC(N)=O)NC(=O)[C@@H](NC(=O)[C@H](Cc1ccccc1)NC(=O)[C@H](CC(=O)O)NC(=O)[C@H](CCC(N)=O)NC(=O)[C@H](CS)NC(=O)[C@H](C)NC(=O)[C@H](CCCNC(=N)N)NC(=O)[C@H](CCC(=O)O)NC(=O)[C@H](CC(=O)O)NC(=O)[C@H](CC(C)C)NC(=O)[C@H](Cc1ccc(O)cc1)NC(=O)[C@H](CCCCN)NC(=O)[C@H](CO)NC(=O)[C@H](Cc1ccc(O)cc1)NC(=O)[C@H](CC(=O)O)NC(=O)[C@H](CO)NC(=O)[C@@H](NC(=O)[C@H](Cc1ccccc1)NC(=O)[C@@H](NC(=O)CNC(=O)[C@H](CCC(N)=O)NC(=O)C(C)(C)NC(=O)[C@@H](N)Cc1c[nH]cn1)[C@@H](C)O)[C@@H](C)O)C(C)C)C(=O)N[C@@H](CC(=O)O)C(=O)N[C@@H](CCC(N)=O)C(=O)NCC(=O)NCC(=O)N1CCC[C@H]1C(=O)N[C@@H](CO)C(=O)N[C@@H](CO)C(=O)NCC(=O)N[C@@H](C)C(=O)N1CCC[C@H]1C(=O)N1CCC[C@H]1C(=O)N1CCC[C@H]1C(=O)N[C@@H](CO)C(N)=O
in vitro Activity Compared to Native Peptide (%), vs GLP-1 (human GLP-1 receptor): 83.1% | in vitro Activity Compared to Native Peptide (%), vs Glucagon (human GCG receptor): 0.8% | in vitro Activity Compared to Native Peptide (%), vs GIP (human GIP receptor): 0.9%

H[Aib]QGTFTSDYSKYLDEKACKDFVQWLLDGGPSSGAPPPS (bridge 16-20; not fully specified (C-terminus)) [triple agonist of SEQ ID NO: 32]
in vitro Activity Compared to Native Peptide (%), vs GLP-1 (human GLP-1 receptor): 151% | in vitro Activity Compared to Native Peptide (%), vs Glucagon (human GCG receptor): 1.7% | in vitro Activity Compared to Native Peptide (%), vs GIP (human GIP receptor): 8.8%

H[Aib]QGTFTSDYSIAMDEIHQKDFVNWLLAQKC (bridge 16-20; not fully specified (C-terminus)) [triple agonist of SEQ ID NO: 33]
in vitro Activity Compared to Native Peptide (%), vs GLP-1 (human GLP-1 receptor): 24.5% | in vitro Activity Compared to Native Peptide (%), vs Glucagon (human GCG receptor): < 0.1% | in vitro Activity Compared to Native Peptide (%), vs GIP (human GIP receptor): 10.4%
